Key:
[1] = molecular target: T1, bovine pancreatic trypsin (Bos taurus, UniProt P00760); experiment: Isothermal titration calorimetry (ITC) of binding to bovine pancreatic trypsin; conditions: for Stoichiometry / Ka (association constant) / ΔH / ΔS: ITC; for Binding to trypsin by ITC (in words): all experimental conditions, FIGS. 6 and 7
T1 sequence (P00760 24-246): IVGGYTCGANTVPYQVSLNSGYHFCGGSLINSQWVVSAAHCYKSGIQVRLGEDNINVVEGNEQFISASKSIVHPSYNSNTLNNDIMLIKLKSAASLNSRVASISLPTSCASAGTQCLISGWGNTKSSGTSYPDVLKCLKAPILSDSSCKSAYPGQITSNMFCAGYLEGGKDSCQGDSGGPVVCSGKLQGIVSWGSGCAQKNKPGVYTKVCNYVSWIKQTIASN
Description: Isothermal titration calorimetry (ITC) was performed with a VP-ITC instrument from MicroCal, inc. Titrations were carried out by injecting 5 μL of an inhibitor solution (at concentration ranges from 0.5 mM to 2.0 mM) into the 1.4 mL stirred reaction cell. APP and APP derivatives ranged in concentration from 50 to 80 μM in the cell. […] Titrations were conducted between 20° C. and 40° C. Typical experimental conditions for the titrations were a 10 second injection period followed by a 240 second delay between injections for a total of 40 injections. Blank titrations of inhibitor into buffer were performed in order to correct for heats of dilution and mixing.
The independent set of multiple binding sites is the most common model for binding experiment evaluations. The analytical solution for the total heat is determined by (Freire et al., 1990): [formula]
where Q is the total heat, V is the cell volume, ΔH is the enthalpy, M is the macromolecule concentration (the binding partner in the cell), n is the binding stoichiometry, L is the ligand concentration (the binding partner in the syringe), and K is the association constant. Data were fit to this model using Origin version 5 (MicroCal, Inc.).
The association constant is related to the van't Hoff enthalpy according to the following relationship: [formula]
The free energy of binding is related to the binding enthalpy by:
or with the incorporation of heat capacity data according to the Gibbs-Helmholtz equation: [formula]
where ΔG is the Gibbs free energy of binding, T0 is the reference temperature, and ΔCp is the heat capacity. The value of ΔCp is calculated from determining the calorimetric enthalpy at two different temperatures: [formula]
By measuring the apparent enthalpy of binding in two different buffers of known enthalpy of ionization, it is possible to measure the net number of protons transferred during the binding events:
where ΔHcor is the actual heat of binding at the pH measured. The sign indicates the direction of proton transfer.

[2] = molecular target: T1, bovine pancreatic trypsin; experiment: Surface plasmon resonance (BiaCore-X), trypsin flowed over immobilized peptide; format: binding; conditions: peptide coupled to CM-5 chip by thiol, trypsin 1 to 100 nM in PBS, FIG. 12
Description: The BiaCore, Inc. BiaCore-X surface plasmon resonance (SPR) device was utilized to measure the interaction between bovine pancreatic trypsin and SAP-1 or SAP-2. For these experiments a carboxymethyl dextran sensor chip (CM-5) was activated with 50 mM N-hydroxysuccinimide, 0.2 M N-ethyl-N′-(dimethylaminopropyl)-carbodiimide at a flow rate of 10 μL per minute for ten minutes. The thiol coupling agent PDEA (2-(2-pyridinyldithio)ethaneamine hydrochloride) at a concentration of 80 mM was passed over the activated surface at a flow rate of 10 μL per minute for five minutes. SAP-1 or SAP-2 at a concentration of 50 ng/μL was coupled to the activated surface at a flow rate of 10 μL per minute for ten minutes. The final surface was inactivated by flowing 50 mM 1-cysteine, 1 M NaCl at a rate of 10 μL per minute for five minutes over the sensor surface. Buffer was switched to phosphate buffered saline (PBS) and bovine pancreatic trypsin was flowed over the sensor surface at a rate of 20 μL per minute, and at concentrations that ranged from 1 to 100 nM.
For this reaction of the type, A+B⇄AB, where A is the free flowing ligand and B is the immobilized ligand, the change in the SPR signal (R) is proportional to formation (for the association phase) or to the dissociation (for the dissociation phase) of the complex AB.
for the association phase. Rmax is the measured response if all of the binding sites in the bound species were occupied, c is the ligand concentration, and Rb is the shift in the baseline signal upon ligand injection. The dissociation phase is evaluated by:
where R0 is the SPR signal at the start of dissociation. A FFT routine separately smoothed the association and dissociation portions of the binding isotherm. Final kinetic analysis (O'Shannessy et al., 1993) was performed using Origin from Microcal, Inc.

[3] = Chemical denaturation: unfolding in urea by intrinsic tryptophan fluorescence; format: physicochemical; conditions: for m1/2 value of unfolding: 20 μM protein; for m1/2 value of unfolding / Native free energy (ΔG in absence of denaturant): room temperature; for Native free energy (ΔG in absence of denaturant): extrapolated to zero urea
Description: Stability measurements of the protein were performed by measuring protein unfolding in the presence of urea via intrinsic tryptophan fluorescence (Lakowicz, 1983) in a Shimadzu RF5301 fluorometer. The excitation and emission wavelengths were 295 nm and 340 nm respectively. Both excitation and emission monochrometer slits were set at 1.5 nm. Protein (20 μM) was mixed with increasing amounts of urea (in the concentration range of zero to 6.8 M), and the samples were incubated at room temperature for ten hours to ensure that unfolding equilibrium had been achieved. Relative fluorescence was converted into free energy values according to the relation (Pace et al., 1989): [formula]
where yf and yu are the relative fluorescence values for fully folded and fully unfolded DST respectively, yi is the relative fluorescence of the unfolding intermediates, T is the absolute temperature, and R is the gas constant. Linear regression and extrapolation of the relationship ΔG versus [urea] was employed to determine the free energy value in the absence of denaturant (ΔGH2O). Similarly, the fraction unfolded protein (Fu) was calculated from the fluorescence data according to the relation (Pace et al., 1989): [formula]

CPSQPTYPGDPYKLKY GPVEDLIRFYDNLQQWLNCVTAAC (CPSQPTYPGDPYKLKYGPVEDLIRFYDNLQQWLNCVTAAC; A peptide-based reagent that combines the SEQ ID NO18 interactive domain with the SEQ ID NO11 peptide backbone.) [SAP-2, SAP backbone with library program-selected YKLKY insert]
Stoichiometry ([1]; 25° C., 20 mM cacodylate pH 7.0, FIG. 8): 0.995 +/− 0.06
Ka (association constant) ([1]; 25° C., FIG. 8): 640000 ± 5300 M⁻¹
ΔH ([1]; 25° C., FIG. 8): -31.2 ± 2.30 kcal/mol
ΔS ([1]; 25° C., FIG. 8): −16.2 +/− 1.22 cal mol^−1 K^−1
Binding affinity compared with the peptide having SEQ ID NO:21 (in words) ([1]; bovine pancreatic trypsin): slightly lower binding affinity
Kinetic rate constant ka (association) [2]: 8.2×10^4
Kinetic rate constant kd (dissociation) [2]: 6.9×10^−2
Stabilization of the native state relative to SAP [3]: 2.1 kcal/mol
Stabilization of the native state relative to SAP-1 [3]: 0.1 kcal/mol
m1/2 value of unfolding [3]: 4.05 M urea

CPSQPTYPGDPGPVEDLIRFYDNLQQWLNCVTAAC [SAP]
Binding to trypsin by ITC (in words) [1]: no detectable binding
Binding to trypsin by ITC (in words), FIG. 6 titration ([1]; peptide 2 mM, trypsin 20 μM, 20 mM cacodylate pH 7.0, 20 mM NaCl, 30° C.): No binding is evident
m1/2 value of unfolding [3]: 2.5 M urea
Dimerization seen in the unfolding curve (in words) ([3]; FIG. 9): no dimerization phenomenon
Native free energy (ΔG in absence of denaturant) [3]: -3.1 kcal/mol

CPSQPTYPGDPPYRIRFGPVEDLIRFYDNLQQWLN CVTAAC (CPSQPTYPGDPPYRIRFGPVEDLIRFYDNLQQWLNCVTAAC; A peptide-based reagent that combines the SEQ ID NO15 interactive domain with the SEQ ID NO11 peptide backbone.) [SAP-1]
Stoichiometry ([1]; 293 K (20° C.), 20 mM cacodylate pH 7.0, 20 mM NaCl, FIG. 7): 0.975 +/− 0.02
Ka (association constant) ([1]; 293 K, FIG. 7): 1.65e+06 ± 45000 M⁻¹
ΔH ([1]; 293 K, FIG. 7): -26.1 ± 1.45 kcal/mol
ΔS ([1]; 293 K, FIG. 7): −11.6 +/− 2.2 cal mol^−1 K^−1
Ka (association constant) ([1]; 303 K): 2.4e+06 ± 37000 M⁻¹
ΔH ([1]; 303 K): -15.4 ± 2.05 kcal/mol
ΔS ([1]; 303 K): −21.1 +/− 1.8 cal mol^−1 K^−1
Stoichiometry ([1]; higher temperature, 303 K): 0.99 +/− 0.03
Binding to trypsin by ITC (in words) [1]: remarkable binding specificity for trypsin
ΔCp (heat capacity of binding) ([1]; from calorimetric enthalpy at 293 K and 303 K): −0.51 kcal/mol K
Kinetic rate constant ka (association) [2]: 1.3×10^5
Kinetic rate constant kd (dissociation) [2]: 1.7×10^−2
Stabilization of the native state relative to SAP [3]: 2.0 kcal/mol
m1/2 value of unfolding [3]: 4.0 M urea
Native free energy (ΔG in absence of denaturant) [3]: -5.1 kcal/mol
